Test results reported in the supplement of paper PMC10126150.
± gives the standard deviation of the averaged measurements.

Tested on: ATP
Test: switch fluorescence ratio, 500 uM ATP over buffer (Cy3 cluster intensity, sum of 5 cycles each) (fold (ratio)); higher = stronger signal-on switching upon ATP binding; sequences stand for … in TCGTCGGCAGCGTCAGATGTGTATAAGAGACAGTTTTTTTTTTTTTTTTTTTTTTTTT…TC
Conditions: aptamer strand: ATP DNA aptamer (quencher-CACCTGGGGGAGTATTGCGGAGGAAGG + anchor), 100 nM annealed; ATP concentration: 500 uM
In short: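 Clusters carrying Cy3-labelled switching strands on a modified Illumina MiSeq flow-cell were annealed to 100 nM quencher-labelled ATP aptamer and imaged in selection buffer. They were imaged again after 15 min with 500 uM ATP at 22 °C, over five buffer/ATP cycles with NaOH stripping and re-annealing in between. For each cluster, the fluorescence ratio is the summed Cy3 intensity of the target cycles divided by that of the buffer cycles, averaged per switch-domain sequence. Clusters outside 100-1000 RFU were left out.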
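Also: ATP exposure 15 min at 22 °C before imaging.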

ATGGCGGGTT
switch fluorescence ratio: 1 ± 0.016

ATGGCTGGCG
switch fluorescence ratio: 1.07 ± 0.094

ATGGCTGGGT
switch fluorescence ratio: 0.971 ± 0.029

ATGGCTTCGT
switch fluorescence ratio: 1.03 ± 0.021

ATGGGACGGT
switch fluorescence ratio: 1.03 ± 0.036

ATGGGAGAAA
switch fluorescence ratio: 1.01 ± 0.0045

ATGGGAGGGG
switch fluorescence ratio: 1.01 ± 0.035

ATGGGAGTTT
switch fluorescence ratio: 1.01 ± 0.01

ATGGGATACT
switch fluorescence ratio: 1.03 ± 0.033

ATGGGCATC
switch fluorescence ratio: 0.9882 ± 0.0058

ATGGGCGAGC
switch fluorescence ratio: 0.981 ± 0.046

ATGGGCGGCC
switch fluorescence ratio: 1.0476 ± 0.00053

ATGGGGACTA
switch fluorescence ratio: 1.0122 ± 0.00084

ATGGGGAGTC
switch fluorescence ratio: 0.985 ± 0.035

ATGGGGATGA
switch fluorescence ratio: 0.9776 ± 0.004

ATGGGGCAGC
switch fluorescence ratio: 1 ± 0.025

ATGGGGCATC
switch fluorescence ratio: 0.9907 ± 0.0082

ATGGGGCTCT
switch fluorescence ratio: 0.9967 ± 0.0067

ATGGGGCTGT
switch fluorescence ratio: 0.979 ± 0.034

ATGGGGGAGG
switch fluorescence ratio: 1.009 ± 0.0031

ATGGGGGATC
switch fluorescence ratio: 1.008 ± 0.0082

ATGGGGGCTG
switch fluorescence ratio: 1.02 ± 0.047

ATGGGGGGAA
switch fluorescence ratio: 0.996 ± 0.037

ATGGGGGTAC
switch fluorescence ratio: 0.998 ± 0.014

ATGGGGGTCG
switch fluorescence ratio: 0.98 ± 0.05

ATGGGGTACG
switch fluorescence ratio: 0.972 ± 0.06

ATGGGGTCGA
switch fluorescence ratio: 1 ± 0.051

ATGGGGTTAA
switch fluorescence ratio: 1.03 ± 0.022

ATGGGTAAGG
switch fluorescence ratio: 0.983 ± 0.019

ATGGGTATCT
switch fluorescence ratio: 0.994 ± 0.033

ATGGGTGAAA
switch fluorescence ratio: 0.9867 ± 0.0084

ATGGGTGGCT
switch fluorescence ratio: 1.011 ± 0.007

ATGGGTTAGA
switch fluorescence ratio: 1.05 ± 0.037

ATGGGTTTAA
switch fluorescence ratio: 0.961 ± 0.063

ATGGGTTTTT
switch fluorescence ratio: 0.979 ± 0.029

ATGGTAAGAC
switch fluorescence ratio: 1.14 ± 0.062

ATGGTAAGGG
switch fluorescence ratio: 0.991 ± 0.026

ATGGTAGAAA
switch fluorescence ratio: 1.02 ± 0.012

ATGGTATAAC
switch fluorescence ratio: 1.01 ± 0.015

ATGGTATCGG
switch fluorescence ratio: 1.026 ± 0.0074

ATGGTATTTT
switch fluorescence ratio: 1.01 ± 0.013

ATGGTCATAA
switch fluorescence ratio: 0.993 ± 0.022

ATGGTCCCTG
switch fluorescence ratio: 0.997 ± 0.035

ATGGTCCGAG
switch fluorescence ratio: 0.998 ± 0.018

ATGGTCGGCC
switch fluorescence ratio: 0.9831 ± 0.0052

ATGGTGAGGG
switch fluorescence ratio: 0.962 ± 0.011

ATGGTGCGGC
switch fluorescence ratio: 1.008 ± 0.0018

ATGGTGCTGG
switch fluorescence ratio: 0.983 ± 0.035

ATGGTGGGT
switch fluorescence ratio: 0.978 ± 0.033

ATGGTGTCTA
switch fluorescence ratio: 0.981 ± 0.038

ATGGTTAGTG
switch fluorescence ratio: 0.975 ± 0.011

ATGGTTGGTA
switch fluorescence ratio: 0.995 ± 0.038

ATGGTTGGTC
switch fluorescence ratio: 0.97 ± 0.023

ATGGTTGTGC
switch fluorescence ratio: 0.991 ± 0.026

ATGGTTGTTC
switch fluorescence ratio: 1.07 ± 0.16

ATGTAAATGT
switch fluorescence ratio: 1.041 ± 0.0077

ATGTAACGAG
switch fluorescence ratio: 1.01 ± 0.022

ATGTAACTCG
switch fluorescence ratio: 1.03 ± 0.044

ATGTAACTGT
switch fluorescence ratio: 0.976 ± 0.033

ATGTAACTTA
switch fluorescence ratio: 1.03 ± 0.027

ATGTAAGGCG
switch fluorescence ratio: 1.014 ± 0.0076

ATGTACGAAT
switch fluorescence ratio: 1.004 ± 0.0025

ATGTAGGCGT
switch fluorescence ratio: 0.967 ± 0.021

ATGTAGGGGG
switch fluorescence ratio: 0.988 ± 0.013

ATGTAGGGGT
switch fluorescence ratio: 1.04 ± 0.093

ATGTAGGGTT
switch fluorescence ratio: 1.036 ± 0.0048

ATGTAGTAGT
switch fluorescence ratio: 1 ± 0.034

ATGTAGTCTT
switch fluorescence ratio: 1 ± 0.0038

ATGTAGTGCA
switch fluorescence ratio: 0.995 ± 0.034

ATGTATAGGC
switch fluorescence ratio: 0.962 ± 0.06

ATGTATATAG
switch fluorescence ratio: 0.978 ± 0.012

ATGTATTAGG
switch fluorescence ratio: 0.997 ± 0.025

ATGTATTTGG
switch fluorescence ratio: 1.01 ± 0.014

ATGTCAAAGC
switch fluorescence ratio: 0.984 ± 0.063

ATGTCAGAGA
switch fluorescence ratio: 1.02 ± 0.037

ATGTCATGCG
switch fluorescence ratio: 1.02 ± 0.045

ATGTCCCAAG
switch fluorescence ratio: 0.99 ± 0.042

ATGTCCGAGG
switch fluorescence ratio: 1.028 ± 0.0019

ATGTCGACAG
switch fluorescence ratio: 1 ± 0.043

ATGTCGTCTC
switch fluorescence ratio: 1.003 ± 0.0091

ATGTCGTGGG
switch fluorescence ratio: 1.01 ± 0.037

ATGTCTGGGC
switch fluorescence ratio: 0.977 ± 0.014

ATGTGAAAGG
switch fluorescence ratio: 1.02 ± 0.018

ATGTGACGCA
switch fluorescence ratio: 1.13 ± 0.012

ATGTGACTCT
switch fluorescence ratio: 1.01 ± 0.043

ATGTGAGAAT
switch fluorescence ratio: 0.998 ± 0.037

ATGTGATCGC
switch fluorescence ratio: 0.986 ± 0.042

ATGTGCATGT
switch fluorescence ratio: 0.986 ± 0.024

ATGTGGACAA
switch fluorescence ratio: 1.02 ± 0.021

ATGTGGAGAT
switch fluorescence ratio: 0.977 ± 0.059

ATGTGGCCAC
switch fluorescence ratio: 1.06 ± 0.053

ATGTGGGGGA
switch fluorescence ratio: 1.02 ± 0.015

ATGTGGGGTA
switch fluorescence ratio: 0.985 ± 0.026

ATGTGGTGCA
switch fluorescence ratio: 1.02 ± 0.0034

ATGTGGTTAG
switch fluorescence ratio: 0.994 ± 0.03

ATGTGTAAAA
switch fluorescence ratio: 0.99 ± 0.013

ATGTGTCAAG
switch fluorescence ratio: 0.9675 ± 0.0065

ATGTGTCTGT
switch fluorescence ratio: 1.01 ± 0.017

ATGTGTGAAA
switch fluorescence ratio: 1 ± 0.073

ATGTGTGGGA
switch fluorescence ratio: 1.029 ± 0.0019

ATGTGTGGGC
switch fluorescence ratio: 1.01 ± 0.021

ATGTGTGTA
switch fluorescence ratio: 1 ± 0.021

ATGTGTTGCG
switch fluorescence ratio: 1 ± 0.045

ATGTGTTTTT
switch fluorescence ratio: 0.98 ± 0.036

ATGTTAGTTG
switch fluorescence ratio: 0.965 ± 0.041

ATGTTATCGA
switch fluorescence ratio: 1.008 ± 0.0074

ATGTTCGGGC
switch fluorescence ratio: 1.04 ± 0.035

ATGTTCTATA
switch fluorescence ratio: 0.97751 ± 0.00084

ATGTTCTGGG
switch fluorescence ratio: 1.04 ± 0.029

ATGTTGACCG
switch fluorescence ratio: 1.03 ± 0.044

ATGTTGATAC
switch fluorescence ratio: 1.07 ± 0.0013

ATGTTGATCC
switch fluorescence ratio: 1.03 ± 0.03

ATGTTGGAAT
switch fluorescence ratio: 1.04 ± 0.028

ATGTTGGCGT
switch fluorescence ratio: 1 ± 0.011

ATGTTGGTAG
switch fluorescence ratio: 0.985 ± 0.026

ATGTTGTCAG
switch fluorescence ratio: 0.987 ± 0.027

ATGTTGTCTC
switch fluorescence ratio: 1.001 ± 0.0079

ATGTTTAAG
switch fluorescence ratio: 1.012 ± 0.0094

ATGTTTCAGG
switch fluorescence ratio: 0.997 ± 0.018

ATGTTTCTGG
switch fluorescence ratio: 0.965 ± 0.011

ATGTTTGAGT
switch fluorescence ratio: 1.01 ± 0.026

ATGTTTGGAC
switch fluorescence ratio: 1.01 ± 0.02

ATGTTTGGTA
switch fluorescence ratio: 1.003 ± 0.0015

ATGTTTTAAC
switch fluorescence ratio: 1.02 ± 0.039

ATGTTTTATG
switch fluorescence ratio: 0.992 ± 0.042

ATGTTTTTCT
switch fluorescence ratio: 0.963 ± 0.0029

ATTAAAAAAG
switch fluorescence ratio: 0.985 ± 0.028

ATTAAAAAAT
switch fluorescence ratio: 0.98 ± 0.089

ATTAAAACGG
switch fluorescence ratio: 1.07 ± 0.098

ATTAAAAGTT
switch fluorescence ratio: 0.984 ± 0.038

ATTAAAGGGG
switch fluorescence ratio: 1 ± 0.023

ATTAAAGGTC
switch fluorescence ratio: 1 ± 0.02

ATTAAAGTTT
switch fluorescence ratio: 1.04 ± 0.034

ATTAACTGAA
switch fluorescence ratio: 1.04 ± 0.012

ATTAACTGGG
switch fluorescence ratio: 1.01 ± 0.023

ATTAAGAGGC
switch fluorescence ratio: 1.02 ± 0.06

ATTAAGCAAG
switch fluorescence ratio: 1.04 ± 0.015

ATTAAGCAT
switch fluorescence ratio: 1.04 ± 0.053

ATTAAGGGGT
switch fluorescence ratio: 1.07 ± 0.12

ATTAAGTCGT
switch fluorescence ratio: 0.982 ± 0.033

ATTAATATCA
switch fluorescence ratio: 0.9629 ± 0.0017

ATTAATATGG
switch fluorescence ratio: 1.02 ± 0.015

ATTAATGTGT
switch fluorescence ratio: 0.9987 ± 0.0011

ATTACGACTG
switch fluorescence ratio: 1.06 ± 0.031

ATTACGGGGT
switch fluorescence ratio: 1.01 ± 0.044

ATTACGTATT
switch fluorescence ratio: 1.103 ± 0.0095

ATTACGTGTA
switch fluorescence ratio: 1.012 ± 0.0039

ATTACGTTGG
switch fluorescence ratio: 0.998 ± 0.024

ATTACGTTTT
switch fluorescence ratio: 0.989 ± 0.039

ATTACTAGTG
switch fluorescence ratio: 1.03 ± 0.014

ATTACTTACA
switch fluorescence ratio: 1.308 ± 0.0037

ATTAGAAAAA
switch fluorescence ratio: 0.904 ± 0.019

ATTAGAACGG
switch fluorescence ratio: 1.01 ± 0.022

ATTAGACCCT
switch fluorescence ratio: 1.038 ± 0.005

ATTAGAGATT
switch fluorescence ratio: 1.01 ± 0.028

ATTAGAGCGT
switch fluorescence ratio: 1.013 ± 0.0045

ATTAGCGCCC
switch fluorescence ratio: 1.01 ± 0.032

ATTAGCTGGT
switch fluorescence ratio: 0.952 ± 0.017

ATTAGCTTAG
switch fluorescence ratio: 0.987 ± 0.017

ATTAGGGGAT
switch fluorescence ratio: 1.01 ± 0.018

ATTAGGGGTT
switch fluorescence ratio: 1 ± 0.037

ATTAGGGTTG
switch fluorescence ratio: 0.9823 ± 0.0019

ATTAGGTAAT
switch fluorescence ratio: 0.999 ± 0.011

ATTAGGTACG
switch fluorescence ratio: 1.02 ± 0.038

ATTAGGTGGG
switch fluorescence ratio: 1.05 ± 0.068

ATTAGTAGCA
switch fluorescence ratio: 1 ± 0.014

ATTAGTCCGA
switch fluorescence ratio: 0.9917 ± 0.0089

ATTATACTTC
switch fluorescence ratio: 1.04 ± 0.013

ATTATATTCT
switch fluorescence ratio: 1 ± 0.038

ATTATCTTGG
switch fluorescence ratio: 1.05 ± 0.064

ATTATGAATT
switch fluorescence ratio: 1.01 ± 0.021

ATTATGGAGG
switch fluorescence ratio: 0.968 ± 0.016

ATTATGGCGC
switch fluorescence ratio: 0.967 ± 0.0049

ATTATGGCTG
switch fluorescence ratio: 1.07 ± 0.011

ATTATGGTAT
switch fluorescence ratio: 1.02 ± 0.04

ATTATGGTGG
switch fluorescence ratio: 1.16 ± 0.26

ATTATGTTTG
switch fluorescence ratio: 1.002 ± 0.0097

ATTATTAATG
switch fluorescence ratio: 0.9917 ± 0.008

ATTATTAGAA
switch fluorescence ratio: 0.9912 ± 0.0034

ATTATTATTG
switch fluorescence ratio: 0.981 ± 0.041

ATTATTCAGT
switch fluorescence ratio: 0.997 ± 0.018

ATTATTCTTT
switch fluorescence ratio: 1.01 ± 0.061

ATTATTGGTG
switch fluorescence ratio: 1.018 ± 0.0046

ATTATTTATC
switch fluorescence ratio: 0.985 ± 0.088

ATTCAAGTT
switch fluorescence ratio: 0.999 ± 0.034

ATTCACACGC
switch fluorescence ratio: 1.06 ± 0.017

ATTCACTTAG
switch fluorescence ratio: 1.09 ± 0.011

ATTCAGACCT
switch fluorescence ratio: 1.39 ± 0.019

ATTCAGATCT
switch fluorescence ratio: 1 ± 0.034

ATTCAGGGCT
switch fluorescence ratio: 1.01 ± 0.013

ATTCAGGGGG
switch fluorescence ratio: 1.07 ± 0.028

ATTCAGTAAA
switch fluorescence ratio: 1 ± 0.022

ATTCAGTTGC
switch fluorescence ratio: 1.08 ± 0.072

ATTCATTCAG
switch fluorescence ratio: 0.9865 ± 0.0047

ATTCATTTTG
switch fluorescence ratio: 1.019 ± 0.0048

ATTCCAAGGA
switch fluorescence ratio: 0.9853 ± 0.0019

ATTCCAGACG
switch fluorescence ratio: 1.01 ± 0.024

ATTCCGGGGA
switch fluorescence ratio: 1.23 ± 0.29

ATTCCGGTGG
switch fluorescence ratio: 0.989 ± 0.052

ATTCCTCTGG
switch fluorescence ratio: 1.2 ± 0.018
